Laboratory results taken from PMC8537947, “Improved Radiolytic Stability of a ^68Ga-labelled Collagelin Analogue for the Imaging of Fibrosis” (Pharmaceuticals, 2021).
Bridge positions count the residues as written; N and C are the ends. Square brackets hold non-standard residues; d marks the D form. Peptide text beside a SMILES is read from it. * marks the point of attachment. NOTA = O=C(O)CN1CCN(CC(=O)O)CCN(CC(=O)*)CC1; Nle = CCCC[C@H](N)C(=O)O; AEEA = NCCOCCOCC(=O)O

Assay: in vivo
Set-up: species or system Sprague-Dawley rats
Conditions: rat; for SUV at 2 h / SUV at 5 min / SUV at 10 min / SUV at 40 min / SUV at 1 h / SUV at 0.5 h: Sprague-Dawley, iv, total radioactivity
Description: Sixteen male (n = 10; 363.3 ± 19.6 g) and female (n = 6; 199.2 ± 5.5 g) Sprague–Dawley rats were used for ex vivo organ distribution of the [^68Ga]Ga-NO2A-[Nle13]-Col for the subsequent extrapolation and calculation of human dosimetry. The male and female animals were administered into the tail vein with, respectively, 2.3 ± 0.8 MBq and 1.4 ± 0.5 MBq, sacrificed at 5, 10, 30, 40, 60, and 120 min post administration, and the organs were harvested, weighted, and measured for their radioactivity content. Samples from the blood, heart, lung, liver, spleen, adrenal glands, kidneys, intestines with or without contents, muscle, testis, bone, brain, pancreas, urine bladder, and bone marrow were collected. To monitor radioactivity elimination and recovery, the radioactivity of the remaining carcass was also measured. The radioactivity measurements were corrected for decay and converted into standardized uptake values (SUVs, Table S2) according to Equation (2), wherein the radioactivity is expressed in MBq and the weight in grams:(2) SUV=Radioactivityorgan∗weightrat/Radioactivityinjected∗weightorgan

[1] = male, SUV large intestine without content (INL-)
[2] = male, SUV small intestine with its content (INS+)

SMILES: CCCC[C@@H]1NC(=O)[C@H](C(C)C)NC(=O)[C@H](CCCNC(=N)N)NC(=O)CNC(=O)[C@@H]2CCCN2C(=O)[C@@H](NC(=O)COCCOCCNC(=O)CN2CCN(CC(=O)O)CCN(CC(=O)O)CC2)CSSC[C@@H](C(=O)O)NC(=O)[C@@H]2CCCN2C(=O)CNC(=O)[C@H](CCC(=O)O)NC(=O)[C@H](CC(=O)O)NC(=O)[C@H](CC(=O)O)NC(=O)CNC(=O)[C@H](CC(C)C)NC(=O)[C@H](Cc2c[nH]cn2)NC(=O)[C@H](CC(C)C)NC(=O)CNC(=O)[C@H](Cc2c[nH]cn2)NC1=O [[^68Ga]Ga-NO2A-[Nle^13]-Col, [^68Ga]Ga-NOTA-PEG2-c[CPGRVNleHGLHLGDDEGPC], metal not drawn] ({NOTA-AEEA}-CPGRV[Nle]HGLHLGDDEGPC-OH; disulfide 1-18)
- SUV at 2 h (female, SUV spleen (SP)): 0.066 SUV
- SUV at 5 min (male, 2.3 MBq, SUV blood (BL)): 2.22 SUV
- SUV at 10 min (male, 2.3 MBq, SUV blood (BL)): 1.53 SUV
- SUV at 40 min (male, 2.3 MBq, SUV heart (HE)): 0.225 SUV
- SUV at 1 h (male, 2.3 MBq, SUV heart (HE)): 0.123 SUV
- SUV at 2 h (male, 2.3 MBq, SUV heart (HE)): 0.024 SUV
- SUV at 5 min (male, 2.3 MBq, SUV liver (LI)): 0.478 SUV
- SUV at 10 min (male, 2.3 MBq, SUV liver (LI)): 0.308 SUV
- SUV at 0.5 h (male, 2.3 MBq, SUV liver (LI)): 0.193 SUV
- SUV at 40 min (male, 2.3 MBq, SUV liver (LI)): 0.198 SUV
- SUV at 1 h (male, 2.3 MBq, SUV liver (LI)): 0.112 SUV
- SUV at 2 h (male, 2.3 MBq, SUV liver (LI)): 0.0624 SUV
- SUV at 1 h (male, 2.3 MBq, SUV lungs (LU)): 0.217 SUV
- SUV at 2 h (male, 2.3 MBq, SUV lungs (LU)): 0.0955 SUV
- SUV at 5 min (male, SUV TE (testis)): 0.354 SUV
- SUV at 10 min (male, SUV TE (testis)): 0.318 SUV
- SUV at 0.5 h (male, SUV TE (testis)): 0.216 SUV
- SUV at 40 min (male, SUV TE (testis)): 0.245 SUV
- SUV at 1 h (male, SUV TE (testis)): 0.118 SUV
- SUV at 2 h (male, SUV TE (testis)): 0.0322 SUV
- SUV at 5 min (male, SUV adrenals (AD)): 0.82 SUV
- SUV at 10 min (male, SUV adrenals (AD)): 0.549 SUV
- SUV at 0.5 h (male, SUV adrenals (AD)): 0.464 SUV
- SUV at 40 min (male, SUV adrenals (AD)): 0.284 SUV
- SUV at 1 h (male, SUV adrenals (AD)): 0.494 SUV
- SUV at 2 h (male, SUV adrenals (AD)): 0.249 SUV
- SUV at 5 min (male, SUV bladder (UB)): 2.51 SUV
- SUV at 10 min (male, SUV bladder (UB)): 3.13 SUV
- SUV at 0.5 h (male, SUV bladder (UB)): 5.01 SUV
- SUV at 40 min (male, SUV bladder (UB)): 2.8 SUV
- SUV at 1 h (male, SUV bladder (UB)): 3.73 SUV
- SUV at 2 h (male, SUV bladder (UB)): 0.896 SUV
- SUV at 0.5 h (male, SUV blood (BL)): 0.8 SUV
- SUV at 40 min (male, SUV blood (BL)): 0.624 SUV
- SUV at 1 h (male, SUV blood (BL)): 0.316 SUV
- SUV at 2 h (male, SUV blood (BL)): 0.052 SUV
- SUV at 5 min (male, SUV bone (BO)): 0.12 SUV
- SUV at 10 min (male, SUV bone (BO)): 0.243 SUV
- SUV at 0.5 h (male, SUV bone (BO)): 0.143 SUV
- SUV at 40 min (male, SUV bone (BO)): 0.127 SUV
- SUV at 1 h (male, SUV bone (BO)): 0.2 SUV
- SUV at 2 h (male, SUV bone (BO)): 0.0384 SUV
- SUV at 5 min (male, SUV brain (BR)): 0.0955 SUV
- SUV at 10 min (male, SUV brain (BR)): 0.0507 SUV
- SUV at 0.5 h (male, SUV brain (BR)): 0.0346 SUV
- SUV at 40 min (male, SUV brain (BR)): 0.0272 SUV
- SUV at 1 h (male, SUV brain (BR)): 0.0268 SUV
- SUV at 2 h (male, SUV brain (BR)): 0.0058 SUV
- SUV at 5 min (male, SUV heart (HE)): 0.97 SUV
- SUV at 10 min (male, SUV heart (HE)): 0.605 SUV
- SUV at 0.5 h (male, SUV heart (HE)): 0.338 SUV
- SUV at 5 min (male, SUV kidneys (KI)): 19.2 SUV
- SUV at 10 min (male, SUV kidneys (KI)): 14.2 SUV
- SUV at 0.5 h (male, SUV kidneys (KI)): 13.6 SUV
- SUV at 40 min (male, SUV kidneys (KI)): 13.1 SUV
- SUV at 1 h (male, SUV kidneys (KI)): 8.67 SUV
- SUV at 2 h (male, SUV kidneys (KI)): 11.5 SUV
- SUV at 5 min [1]: 1.01 SUV
- SUV at 10 min [1]: 0.919 SUV
- SUV at 0.5 h [1]: 0.476 SUV
- SUV at 40 min [1]: 0.289 SUV
- SUV at 1 h [1]: 0.243 SUV
- SUV at 2 h [1]: 0.0668 SUV
- SUV at 5 min (male, SUV lungs (LU)): 1.28 SUV
- SUV at 10 min (male, SUV lungs (LU)): 1 SUV
- SUV at 0.5 h (male, SUV lungs (LU)): 0.566 SUV
- SUV at 40 min (male, SUV lungs (LU)): 0.563 SUV
- SUV at 5 min (male, SUV muscle (MU)): 0.401 SUV
- SUV at 10 min (male, SUV muscle (MU)): 0.507 SUV
- SUV at 0.5 h (male, SUV muscle (MU)): 0.116 SUV
- SUV at 40 min (male, SUV muscle (MU)): 0.104 SUV
- SUV at 1 h (male, SUV muscle (MU)): 0.106 SUV
- SUV at 2 h (male, SUV muscle (MU)): 0.0164 SUV
- SUV at 5 min (male, SUV pancreas (PA)): 0.472 SUV
- SUV at 10 min (male, SUV pancreas (PA)): 0.419 SUV
- SUV at 0.5 h (male, SUV pancreas (PA)): 0.261 SUV
- SUV at 40 min (male, SUV pancreas (PA)): 0.2 SUV
- SUV at 1 h (male, SUV pancreas (PA)): 0.111 SUV
- SUV at 2 h (male, SUV pancreas (PA)): 0.0272 SUV
- SUV at 5 min (male, SUV red bone marrow (BM)): 0.584 SUV
- SUV at 10 min (male, SUV red bone marrow (BM)): 0.543 SUV
- SUV at 0.5 h (male, SUV red bone marrow (BM)): 0.262 SUV
- SUV at 40 min (male, SUV red bone marrow (BM)): 1.01 SUV
- SUV at 1 h (male, SUV red bone marrow (BM)): 1.15 SUV
- SUV at 2 h (male, SUV red bone marrow (BM)): 0.154 SUV
- SUV at 5 min [2]: 0.731 SUV
- SUV at 10 min [2]: 0.5 SUV
- SUV at 0.5 h [2]: 0.256 SUV
- SUV at 40 min [2]: 0.412 SUV
- SUV at 1 h [2]: 0.132 SUV
- SUV at 2 h [2]: 0.0313 SUV
- SUV at 5 min (male, SUV spleen (SP)): 0.541 SUV
- SUV at 10 min (male, SUV spleen (SP)): 0.376 SUV
- SUV at 0.5 h (male, SUV spleen (SP)): 0.241 SUV
- SUV at 40 min (male, SUV spleen (SP)): 0.205 SUV
- SUV at 1 h (male, SUV spleen (SP)): 0.126 SUV
- SUV at 2 h (male, SUV spleen (SP)): 0.0652 SUV
- decrease of kidney SUV: 40-50%
- highest SUV (kidneys): around 12 SUV
